Laboratory results: patent US7547676B2, “Antagonist peptides to the C5A chemotactic function of vitamin D binding protein” (The Research Foundation of State University of New York, priority 2004, dated 2009)

Legend:
[1] = system: differentiated HL-60 cells; assay: Chemotaxis assay, differentiated HL-60 cells responding to C5a, C5a plus DBP or ZAS; assay type: cell-based, Human; conditions: differentiated HL-60 cells; for enhancement of C5a-mediated chemotaxis (net cell movement): 100 pM C5a (FIG. 1: 25-200 pM) plus 50 nM of indicated DBP, 60 min at 37° C
Procedure, shortened: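 Bt2cAMP-differentiated (250 μM, 48 h) HL-60 cells pretreated 30 min at room temperature with buffer, 1 μM peptide 1 (130-152) or 1 μM peptide 2 (150-172). Migration toward 100 pM C5a, C5a plus 50 nM full-length DBP, or 1% ZAS measured in 48-well chamber through 5 μm cellulose nitrate filters, 60 min, 37 °C; read-out is leading-front distance (μm), mean±SEM of 3 experiments.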

U937-C5aR cells = assay: C5a-induced intracellular calcium mobilization in U937-C5aR cells; assay type: cell-based, human; conditions: FIG. 11A; cells pretreated 30 min at 22° C. with 50 nM DBP
Method: FIG. 11A and FIG. 11B show the effect of DBP on C5a-induced intracellular calcium mobilization in U937-C5aR cells. U937-C5aR cells (10^7 cells/ml) were resuspended in HBSS-1% BSA containing 2 μM Fluo-3 AM and incubated at 37° C. for 40 minutes. Cells incubated without the dye were used as a control to measure autofluorescence (Fmin). Following the dye uptake, cells were washed twice then suspended at 5×10^6 cells/ml in HBSS containing 1% BSA. For the pretreatment experiments, cells were incubated for 30 min at 22° C. with 50 nM DBP or 0.5 μM DBP peptide 1 (p1). For each measurement, 400 μl of cell suspension was added to a cuvette and stimulated with the indicated concentration of C5a (FIG. 11A) or 0.1 nM C5a (FIG. 11B). Fluorescence was then measured immediately using a Perkin-Elmer LS-5 fluorometer at 505 nm excitation, 526 nm emission for Fluo-3 AM. Fmax was measured by treating labeled cells with 60 μM digitonin. Intracellular free calcium concentrations were calculated using the following formula: (Ca^2+)=Kd (F−Fmin)/(Fmax−F), where Kd=325 nM for Fluo-3 according to manufacturer (Molecular Probes). Data are presented as mean±SEM (n=4-6) of the increase in intracellular calcium concentration.
U937-C5aR cells (10^7 cells/ml) were resuspended in HBSS-1% BSA containing 2 μM Fluo-3 AM and incubated at 37° C. for 40 minutes. Cells incubated without the dye were used as a control to measure autofluorescence (Fmin). Following the dye uptake, cells were washed twice then suspended at 5×10^6 cells/ml in HBSS containing 1% BSA. Cells were incubated for 30 min at 22° C. with either 50 nM DBP or 0.5 μM DBP peptide. For each measurement, 400 μl of cell suspension was added to a cuvette and stimulated with 0.1 nM purified C5a. Fluorescence was then measured immediately using a Perkin-Elmer LS-5 fluorometer at 505 nm excitation, 526 nm emission for Fluo-3 AM. Fmax was measured by treating labeled cells with 60 μM digitonin. Intracellular free calcium concentrations were calculated using the following formula: (Ca2+)=Kd (F−Fmin)/(Fmax−F), where Kd=325 nM for Fluo-3 according to manufacturer (Molecular Probes)

[2] = system: differentiated HL-60 cells; assay: Ligand-induced calcium mobilization (Fluo-3 AM) in differentiated HL-60 cells; assay type: cell-based, Human; conditions: untreated cells, DBP and C5a added simultaneously

B1: DBP: Purified human DBP obtained from Biodesign International (protein)
chain: LERGRDYEKNKVCKEFSHLGKEDFTSLSLVLYSRKFPSGTFEQVSQLVKEVVSLTEACCAEGADPDCYDTRTSALSAKSCESNSPFPVHPGTAECCTKEGLERKLCMAALKHQPQEFPTYVEPTNDEICEAFRKDPKEYANQFMWEYSTNYGQAPLSLLVSYTKSYLSMVGSCCTSASPTVCFLKERLQLKHLSLLTTLSNRVCSQYAAYGEKKSRLSNLIKLAQKVPTADLEDVLPLAEDITNILSKCCESASEDCMAKELPEHTVKLCDNLSTKNSKFEDCCQEKTAMDVFVCTYFMPAAQLPELPDVELPTNKDVCDPGNTKVMDKYTFELSRRTHLPEVFLSKVLEPTLKSLGECCDVEDSTTCFNAKGPLLKKELSSFIDKGQELCADYSENTFTEYKKKLAERLKAKLPDATPTELAKLVNKHSDFASNCCSINSPPLYCDSEIDAELKNIL
- enhancement of C5a-mediated chemotaxis (net cell movement) ([1]; listed as natural DBP): significantly enhanced
- enhancement of C5a-mediated chemotaxis (net cell movement) ([1]; listed as purified natural DBP): significantly enhanced movement to C5a
- response of cells treated with DBP alone ([1]; no C5a, chemotaxis and Ca2+ flux): no response
- effect on C5a-induced increase in intracellular calcium (U937-C5aR cells): significantly augments
- calcium influx in response to C5a [2]: did not show augmented calcium influx
